This test concerns the target human Hsp90β (HSP90AB1) (human, UniProt P08238 1-724). As to the kind of experiment: ITC.

Sequence of human Hsp90β (HSP90AB1) (P08238 whole entry): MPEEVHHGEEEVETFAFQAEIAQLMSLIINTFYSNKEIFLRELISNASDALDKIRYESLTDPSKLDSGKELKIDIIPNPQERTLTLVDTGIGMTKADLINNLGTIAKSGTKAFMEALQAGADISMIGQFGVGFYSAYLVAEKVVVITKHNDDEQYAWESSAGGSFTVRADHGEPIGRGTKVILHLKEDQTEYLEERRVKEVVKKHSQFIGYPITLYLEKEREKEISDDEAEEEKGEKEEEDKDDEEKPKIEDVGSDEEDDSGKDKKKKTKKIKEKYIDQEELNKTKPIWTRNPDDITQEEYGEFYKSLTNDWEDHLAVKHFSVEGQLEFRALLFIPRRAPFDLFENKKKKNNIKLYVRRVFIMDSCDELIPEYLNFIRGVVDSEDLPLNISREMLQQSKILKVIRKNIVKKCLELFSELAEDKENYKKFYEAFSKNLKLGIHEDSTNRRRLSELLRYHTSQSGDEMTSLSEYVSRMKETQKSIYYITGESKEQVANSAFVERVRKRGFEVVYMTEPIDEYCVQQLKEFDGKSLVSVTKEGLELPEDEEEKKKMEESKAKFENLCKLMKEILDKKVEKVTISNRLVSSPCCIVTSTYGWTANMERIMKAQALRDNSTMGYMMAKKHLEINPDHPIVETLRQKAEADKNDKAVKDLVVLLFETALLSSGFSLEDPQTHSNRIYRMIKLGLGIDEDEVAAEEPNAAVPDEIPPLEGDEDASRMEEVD

B1: Hop112a (Hop aa. 1-352; TPR1, DP1 and TPR2A) (domain or fragment)
chain: not shown
Take B1: the Kd was determined as 3.59 µM and the “stoichiometry N” value is 0.5.
